This passage reports Abs312 (light scattering of cylinder formation), Kd and apparent mass (gel filtration, oligomerization state) results from patent publication US20050009743A1.

Assay [1] concerns the target CA-NC(G94D) with the CA W184A/M185A mutations (plasmid WISP01127) (HIV-1 NL4-3). Briefly: self-assembly of 9 µM mutant protein with 1 µM d(TG)50, overnight at 4 °C, 500 mM NaCl, 50 mM Tris-HCl pH 8.0; light scattering at 312 nm.
The target in assay [2] is CA-NC(G94D) with the CA A42D mutation (plasmid WISP01125) (HIV-1 NL4-3). The assay is described as above.
For assay [3], the target named is HIV-1 CA-NC(G94D) protein (HIV-1 NL4-3 Gag amino acids 133-433 with the point mutation G94D; plasmid WISP9868) (HIV-1 NL4-3). Briefly: self-assembly of 9 µM protein with 1 µM d(TG)50, overnight at 4 °C, 500 mM NaCl, 50 mM Tris-HCl pH 8.0; light scattering at 312 nm.
For assay [4] the target is unchanged. Briefly: self-assembly of 9 µM CA-NC(G94D) with 0.03 mg/ml random 100-base oligonucleotide d(N)100, overnight at 4 °C, 500 mM NaCl, 50 mM Tris-HCl pH 8.0; light scattering at 312 nm (only slightly above background).
Assay [5] has the same target. The assay can be described thus: self-assembly of 9 µM CA-NC(G94D) with 0.03 mg/ml d(TG)25, overnight at 4 °C, 500 mM NaCl, 50 mM Tris-HCl pH 8.0; light scattering at 312 nm.
For assay [6] the target is unchanged. The assay can be described thus: self-assembly of 9 µM CA-NC(G94D) with 1 µM d(TG)50, 16 h at 4 °C, 500 mM NaCl, 50 mM Tris-HCl; light scattering at 312 nm.
For assay [7] the target is unchanged. The assay can be described thus: self-assembly of 9 µM CA-NC(G94D) with 0.03 mg/ml d(TG)50, overnight at 4 °C, 500 mM NaCl, 50 mM Tris-HCl pH 8.0; light scattering at 312 nm.
The target is the same in assay [8]. Briefly: self-assembly of 9 µM CA-NC(G94D) with 0.03 mg/ml d(TG)38, overnight at 4 °C, 500 mM NaCl, 50 mM Tris-HCl pH 8.0; light scattering at 312 nm.
Assay [9] concerns the target (CA-CTD)2, two copies of the HIV-1 CA C-terminal dimerization domain in tandem (plasmid WISP0070) (HIV-1 NL4-3). The assay can be described thus: equilibrium sedimentation (analytical ultracentrifugation), 22,000 rpm, 4 °C, 25 mM phosphate pH 7.0, 100 mM NaCl, 2 mM DTT; self-association.
Assay [10] shares this target. Briefly: Superdex 75 gel filtration, 4 mg/ml loaded, 25 mM phosphate pH 7.2, 150 mM NaCl; self-association. On the technique in general: SEC sorts molecules by how far they enter the pores of the column.
Assay [11] deals with HIV-1 CA-NC (wild-type) (HIV-1 NL4-3). The assay can be described thus: self-assembly of 9 µM protein with 1 µM d(TG)50, overnight at 4 °C, 500 mM NaCl, 50 mM Tris-HCl pH 8.0; light scattering at 312 nm (the filing puts the higher signal down to aggregation).

In [1], “CA-NC(G94D) with the CA W184A/M185A mutations (plasmid WISP01127)” had an Abs312 (light scattering of cylinder formation) of 0.008.
Substance “CA-NC(G94D) with the CA A42D mutation (plasmid WISP01125)” showed an Abs312 (light scattering of cylinder formation) in [2] of 0.025.
“HIV-1 CA-NC(G94D) protein (HIV-1 NL4-3 Gag amino acids 133-433 with the point mutation G94D; plasmid WISP9868)”: the Abs312 (light scattering of cylinder formation) in [3] was 0.292; in assay [4], 0.035; in assay [5] it was 0.2; in assay [6] it was 0.3 to 0.4; in [7] it was 0.292; in [8], 0.279.
For orientation: Kd means the constant that tells how readily two partners part at equilibrium. Substance “(CA-CTD)2, two copies of the HIV-1 CA C-terminal dimerization domain in tandem (plasmid WISP0070)” came in with a Kd in [9] of less than 1000 nM. For the same substance, the apparent mass (gel filtration, oligomerization state) in assay [10] amounted to 59 kDa.
Substance HIV-1 CA-NC (wild-type) displayed an Abs312 (light scattering of cylinder formation) in assay [11] of 0.735.
